The values that follow come from PMC11891784, “Reversible enzyme-catalysed NAD^+/NADH electrochemistry” (Chemical Science, 2025).

Substrate in the data set: NC(=O)c1ccc[n+]([C@@H]2O[C@H](COP(=O)(O)OP(=O)(O)OC[C@H]3O[C@@H](n4cnc5c(N)ncnc54)[C@H](O)[C@@H]3O)[C@@H](O)[C@H]2O)c1
Briefly: mediated catalytic cyclic voltammetry. Type of data set: biochemical, Cupriavidus necator. The conditions noted are these: methyl viologen 60 μM as electron donor, 50 mM phosphate pH 7.5, 25 °C, N2, FdsBG 0.34 μM, turnover number calculated from simulated rate constant and Km.

B1: FdsBG (subcomplex of formate dehydrogenase FdsDABG) (Cupriavidus necator H16) (protein)
chain: MITITTIFVPRDSTALALGADDVARAIAREAAARNEHVRIVRNGSRGMFWLEPLVEVQTGAGRVAYGPVSAADVPGLFDAGLLQGGEHALSQGVTEEIPFLKQQERLTFARVGITDPLSLDDYRAHEGFAGLERALAMQPAEIVQEVTDSGLRGRGGAAFPTGIKWKTVLGAQSAVKYIVCNADEGDSGTFSDRMVMEDDPFMLIEGMTIAALAVGAEQGYIYCRSEYPHAIAVLESAIGIANAAGWLGDDIRGSGKRFHLEVRKGAGAYVCGEETALLESLEGRRGVVRAKPPLPALQGLFGKPTVINNVISLATVPVILARGAQYYRDYGMGRSRGTLPFQLAGNIKQGGLVEKAFGVTLRELLVDYGGGTRSGRAIRAVQVGGPLGAYLPESRFDVPLDYEAYAAFGGVVGHGGIVVFDETVDMAKQARYAMEFCAIESCGKCTPCRIGSTRGVEVMDRIIAGEQPVKHVALVRDLCDTMLNGSLCAMGGMTPYPVLSALNEFPEDFGLASNPAKAA
notes: FdsBG subcomplex without FdsA and FdsD; FdsB 55 kDa (FMN, [4Fe-4S]) and FdsG 19 kDa ([2Fe-2S]); 74 kDa in total; expressed and purified by a published procedure; with NAD-dependent formate dehydrogenase gamma subunit
As to B1, the Km is listed as 1.2(1) mM and the kcat (commonly the maximal rate divided by the concentration of active sites) was 2400 s⁻¹.
